Assay results reported in patent US20100292181.

Tests used:
[1] = molecular target: T1, Synthetic peptide S3 conjugated to a penetratin peptide
T1 chain: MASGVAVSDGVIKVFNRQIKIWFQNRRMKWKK

[2] = molecular target: GST-tagged recombinant human cofilin
GST-tagged recombinant human cofilin, sequence (chain, as listed by the source): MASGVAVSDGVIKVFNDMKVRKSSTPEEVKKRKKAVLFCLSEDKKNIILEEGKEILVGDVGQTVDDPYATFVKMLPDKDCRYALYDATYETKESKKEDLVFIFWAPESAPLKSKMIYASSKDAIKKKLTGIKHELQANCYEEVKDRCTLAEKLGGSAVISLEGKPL

B1: purified LIMK1 (protein)
chain: GSSARQKPVLRSCSIDRSPGAGSLGSPASQRKDLGRSESLRVVCRPHRIFRPSDLIHGEVLGKGCFGQAIKVTHRETGEVMVMKELIRFDEETQRTFLKEVKVMRCLEHPNVLKFIGVLYKDKRLNFITEYIKGGTLRGIIKSMDSQYPWSQRVSFAKDIASGMAYLHSMNIIHRDLNSHNCLVRENKNVVVADFGLARLMVDEKTQPEGLRSLKKPDRKKRYTVVGNPYWMAPEMINGRSYDEKVDVFSFGIVLCEIIGRVNADPDYLPRTMDFGLNVRGFLDRYCPPNCPPSFFPITVRCCDLDPEKRPSFVKLEHWLETLRMHLAGHLPLGPQLEQLDRGFWETYRRGESG
With B1 the “cofilin phosphorylation in the in vitro LIMK1 kinase assay (western blot for phospho-cofilin ser3)” value [1] was “S3 inhibited cofilin phosphorylation by LIMK1” and the “cofilin phosphorylation in the in vitro LIMK1 kinase assay (western blot for phospho-cofilin ser3)” value [2] was “the phosphorylation of cofilin by LIMK1”.
